Numbering of substitutions follows the chain as printed.
How the values were obtained:
Test in all cases: pull-down
[1] = molecular target: T1, 6xHis-IKKβ(1-669) EE K480E (human, UniProt O14920 1-669, S177E | S181E | K480E)
T1 sequence (looked up): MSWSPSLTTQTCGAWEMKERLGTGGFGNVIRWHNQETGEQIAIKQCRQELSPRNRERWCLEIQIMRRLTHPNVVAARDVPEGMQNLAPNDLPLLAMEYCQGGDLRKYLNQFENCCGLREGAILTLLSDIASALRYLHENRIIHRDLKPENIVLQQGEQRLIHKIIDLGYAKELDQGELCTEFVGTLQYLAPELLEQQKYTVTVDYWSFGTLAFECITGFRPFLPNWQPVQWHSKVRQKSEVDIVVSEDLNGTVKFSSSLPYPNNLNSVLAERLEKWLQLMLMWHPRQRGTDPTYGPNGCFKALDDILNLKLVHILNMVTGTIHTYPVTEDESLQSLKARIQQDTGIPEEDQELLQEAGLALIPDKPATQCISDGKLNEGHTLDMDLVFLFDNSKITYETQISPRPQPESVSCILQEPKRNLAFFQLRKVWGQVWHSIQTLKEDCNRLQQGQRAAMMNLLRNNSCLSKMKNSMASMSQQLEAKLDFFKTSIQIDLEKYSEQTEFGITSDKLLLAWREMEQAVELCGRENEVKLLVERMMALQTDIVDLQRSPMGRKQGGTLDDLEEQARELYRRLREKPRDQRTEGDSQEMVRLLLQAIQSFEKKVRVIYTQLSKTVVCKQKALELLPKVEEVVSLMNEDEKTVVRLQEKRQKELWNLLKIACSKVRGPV

[2] = molecular target: T2, 6xHis-IKKβ(1-669) EE K469E (human, UniProt O14920 1-669, S177E | S181E | K469E)
T2 sequence (looked up): T1 sequence (looked up) with K469E, E480K

[3] = molecular target: T3, 6xHis-IKKβ(1-669) EE R460E (human, UniProt O14920 1-669, S177E | S181E | R460E)
T3 sequence (looked up): T1 sequence (looked up) with R460E, E480K

binding result [1]: binds
binding result [2]: binds
binding result [3]: binds
Binder: DELPYDDCVFGGQRLTL (peptide, UniProt P25963 301-317, looked up) [MBP-IκBα pep(s)]
